Measurements taken from PMC8826748 (Nature, 2021).

Molecular target: the molecule itself
Assay: cryo-EM structure

B1: near-full-length human calcium-sensing receptor (CaSR, residues 20-894), Flag-tagged (receptor)
chain: AAAYGPDQRAQKKGDIILGGLFPIHFGVAAKDQDLKSRPESVECIRYNFRGFRWLQAMIFAIEEINSSPALLPNLTLGYRIFDTCNTVSKALEATLSFVAQNKIDSLNLDEFCNCSEHIPSTIAVVGATGSGVSTAVANLLGLFYIPQVSYASSSRLLSNKNQFKSFLRTIPNDEHQATAMADIIEYFRWNWVGTIAADDDYGRPGIEKFREEAEERDICIDFSELISQYSDEEEIQHVVEVIQNSTAKVIVVFSSGPDLEPLIKEIVRRNITGKIWLASEAWASSSLIAMPQYFHVVGGTIGFALKAGQIPGFREFLKKVHPRKSVHNGFAKEFWEETFNCHLQEGAKGPLPVDTFLRGHEESGDRFSNSSTAFRPLCTGDENISSVETPYIDYTHLRISYNVYLAVYSIAHALQDIYTCLPGRGLFTNGSCADIKKVEAWQVLKHLRHLNFTNNMGEQVTFDECGDLVGNYSIINWHLSPEDGSIVFKEVGYYNVYAKKGERLFINEEKILWSGFSREVPFSNCSRDCLAGTRKGIIEGEPTCCFECVECPDGEYSDETDASACNKCPDDFWSNENHTSCIAKEIEFLSWTEPFGIALTLFAVLGIFLTAFVLGVFIKFRNTPIVKATNRELSYLLLFSLLCCFSSSLFFIGEPQDWTCRLRQPAFGISFVLCISCILVKTNRVLLVFEAKIPTSFHRKWWGLNLQFLLVFLCTFMQIVICVIWLYTAPPSSYRNQELEDEIIFITCHEGSLMALGFLIGYTCLLAAICFFFAFKSRKLPENFNEAKFITFSMLIFFIVWISFIPAYASTYGKFVSAVEVIAILAASFGLLACIFFNKIYIILFKPSRNTIEEVRCSTAAHAFKVAARATLRRSNV
- binding result: binds
